Article PMC11693862 (Acta Biochimica et Biophysica Sinica, 2024)

Experiments:
Experiment in all cases: crystal structure
[1] = molecular target: SARS-CoV-2 M pro G15S (SARS-CoV-2)
[2] = molecular target: SARS-CoV-2 M pro K90R (SARS-CoV-2)
[3] = molecular target: SARS-CoV-2 M pro M49I (SARS-CoV-2)
[4] = molecular target: SARS-CoV-2 M pro P132H (SARS-CoV-2)
[5] = molecular target: SARS-CoV-2 M pro S46F (SARS-CoV-2)
[6] = molecular target: SARS-CoV-2 M pro V186F (SARS-CoV-2)
[7] = molecular target: SARS-CoV-2 M pro Y54C (SARS-CoV-2)

Question: Which stoichiometry N [1] does the source give for SARS-CoV-2 M pro G15S (enzyme) here?
Answer: The stoichiometry N was 2.

Question: Which stoichiometry N [2] does the source give for SARS-CoV-2 M pro K90R (enzyme) here?
Answer: Its stoichiometry N is 2.

Question: For SARS-CoV-2 M pro M49I (enzyme), which stoichiometry N [3] is on record?
Answer: The stoichiometry N was 2.

Question: SARS-CoV-2 M pro P132H (enzyme) was tested. Which stoichiometry N [4] did it give?
Answer: Its stoichiometry N is 2.

Question: SARS-CoV-2 M pro S46F (enzyme) was tested. Which stoichiometry N [5] did it give?
Answer: The stoichiometry N was 2.

Question: For SARS-CoV-2 M pro V186F (enzyme), which stoichiometry N [6] is on record?
Answer: The stoichiometry N was 2.

Question: SARS-CoV-2 M pro Y54C (enzyme) was tested. Which stoichiometry N [7] did it give?
Answer: The stoichiometry N was 2.
